From PMC9411207, “Designed peptides as nanomolar cross-amyloid inhibitors acting via supramolecular nanofiber co-assembly” (Nature Communications, 2022)
Square brackets hold non-standard residues; d marks the D form. Ends that are not written are not given here. NMeF = CN[C@@H](Cc1ccccc1)C(=O)O; NMeL = CN[C@@H](CC(C)C)C(=O)O; NMeV = CN[C@H](C(=O)O)C(C)C; Nle = CCCC[C@H](N)C(=O)O

T1: N-terminal fluorescein-labeled IAPP (human, UniProt P10997 34-70, fluorescein on the N-terminus; subjected to air-oxidation)
T1 construct: also called Fluos-IAPP; source: synthetic peptide (Fmoc-SPPS, air-oxidation, RP-HPLC purified)
T1 chain (looked up): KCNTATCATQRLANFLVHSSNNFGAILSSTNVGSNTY


Key:
[1] = target: the molecule itself; assay: SEC; Superdex 75 10/300 GL, 50 mM sodium phosphate pH 7.4, 100 mM NaCl; IAPP (16.5 µM) alone or with Nle3-VF (1/2) incubated in ThT buffer, 0 h and 96 h
[2] = target: T1, N-terminal fluorescein-labeled IAPP; assay: other fluorescence titration; N-terminal fluorescently-labeled peptide (5 nM) titrated with unlabeled peptide; 10 mM sodium phosphate buffer, pH 7.4 (1% HFIP); measured within 2–5 min after preparation; apparent KDs from 1/1 binding models; conditions: both partners purified
[3] = target: T2, Fluorescein-isothiocyanate-β-Ala-labeled Aβ42 (UniProt P05067 672-713, fluorescein-isothiocyanate-β-Ala on the N-terminus); assay: as above; conditions: both partners purified
T2 construct: amyloid-β peptide Aβ42, the 42-residue cut product of the amyloid precursor protein; also called FITC-Aβ42; N-terminal FITC-labeled Aβ42; source: bought: Bachem
T2 sequence (P05067 672-713): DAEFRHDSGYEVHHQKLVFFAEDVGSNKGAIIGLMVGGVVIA

Binder | Kd [2] [nM] | Kd [3] [nM] | stoichiometry N [1]
QKL[NMeV]F[NMeF]AED[Nle][Nle][Nle]NKGAIIGL[Nle]VGGVV [Nle3-VF] | 69.5 | 14.5 | 2
QK[NMeL]V[NMeF]FAEDLLLNKGAIIGL[Nle]VGGVV [L3-LF] | 143 | 2.6 | 
QKL[NMeV]F[NMeF]AEDLLLNKGAIIGL[Nle]VGGVV [L3-VF] | 77.3 | 38 | 

These reach a lower Kd [2]. Values come first.

Kd [2] [nM] | Kd [3] [nM] | Binder | stoichiometry N [1]
55.4 | 11.1 | QK[NMeL]V[NMeF]FAED[Nle][Nle][Nle]NKGAIIGL[Nle]VGGVV [Nle3-LF] | 
37.6 | 431 | QK[NMeL]V[NMeF]FAEDFFFNKGAIIGL[Nle]VGGVV [F3-LF] | 
15 | 161 | QKL[NMeV]F[NMeF]AEDFFFNKGAIIGL[Nle]VGGVV [F3-VF] | 
